The values that follow come from patent US20180362668.

Positions count from the first letter of the chain named. Names and notes keep the numbering of the source. Values joined by “and” are separate entries in the source; they are usually repeats but may differ in a detail not shown here. Equal entries are not always repeated.

The target in data set [1] is T1, VhH-Fc fusion protein chain B with T366S + L368A + Y407V + F405K + E357A. The data set can be described thus: non-reducing SDS-PAGE densitometry of Protein A-purified co-transfection product; chain A:chain B vectors 1:4.
For data set [2], the target named is T1, VhH-Fc fusion protein chain B with …. In words: non-reducing SDS-PAGE densitometry of Protein A-purified co-transfection product; chain A:chain B vectors 4:1.
The target in data set [3] is T2, VhH-Fc fusion protein chain B with T366S + L368G + Y407A + F405K. In words: non-reducing SDS-PAGE densitometry of Protein A-purified co-transfection product; chain A:chain B vectors 1:4.
Data set [4] addresses T2, VhH-Fc fusion protein chain B with …. The data set can be described thus: non-reducing SDS-PAGE densitometry of Protein A-purified co-transfection product; chain A:chain B vectors 4:1.
In data set [5] the target is T3, VhH-Fc fusion protein chain B with T366S + L368A + Y407V + D399S + F405K. In words: non-reducing SDS-PAGE densitometry of Protein A-purified co-transfection product; chain A:chain B vectors 1:1.
Data set [6] has as its target T3, VhH-Fc fusion protein chain B with …. In words: non-reducing SDS-PAGE densitometry of Protein A-purified co-transfection product; chain A:chain B vectors 1:4.
The target is the same in data set [7]. The data set can be described thus: non-reducing SDS-PAGE densitometry of Protein A-purified co-transfection product; chain A:chain B vectors 4:1.
In data set [8] the target is Fc protein chain B with D356C + T366S + L368A + Y407V. In words: non-reducing SDS-PAGE of Protein A-purified co-transfection product; chain A:chain B vectors 1:4.
Data set [9] has the same target. The data set can be described thus: non-reducing SDS-PAGE of Protein A-purified co-transfection product; chain A:chain B vectors 4:1.
Data set [10] shares this target. The data set can be described thus: non-reducing SDS-PAGE densitometry of Protein A-purified co-transfection product; chain A:chain B vectors 1:1.
Data set [11] deals with T4, VhH-Fc fusion protein chain B with D356C + T366S + L368A + Y407V. In words: non-reducing SDS-PAGE densitometry of Protein A-purified co-transfection product; chain A:chain B vectors 1:4.
Data set [12] concerns the target T4, VhH-Fc fusion protein chain B with …. The data set can be described thus: non-reducing SDS-PAGE densitometry of Protein A-purified co-transfection product; chain A:chain B vectors 4:1.
The target of data set [13] is T5, VhH-Fc fusion protein chain B with T366S + L368A + Y407V + K409A + K392D. The data set can be described thus: non-reducing SDS-PAGE densitometry of Protein A-purified co-transfection product; chain A:chain B vectors 1:4.
Data set [14] has as its target T5, VhH-Fc fusion protein chain B with …. In words: non-reducing SDS-PAGE densitometry of Protein A-purified co-transfection product; chain A:chain B vectors 4:1.
Data set [15] addresses T6, VhH-Fc fusion protein chain B with T366S + L368G + Y407A + K409A. The data set can be described thus: non-reducing SDS-PAGE densitometry of Protein A-purified co-transfection product; chain A:chain B vectors 1:4.
Data set [16] has as its target T6, VhH-Fc fusion protein chain B with …. The data set can be described thus: non-reducing SDS-PAGE densitometry of Protein A-purified co-transfection product; chain A:chain B vectors 4:1.
For data set [17], the target named is Fc protein chain B with D356C + T366S + L368A + Y407V + F405K. The data set can be described thus: non-reducing SDS-PAGE densitometry of Protein A-purified co-transfection product; chain A:chain B vectors 1:1.
The target is the same in data set [18]. The data set can be described thus: non-reducing SDS-PAGE of Protein A-purified co-transfection product; chain A:chain B vectors 1:4.
Data set [19] shares this target. The data set can be described thus: non-reducing SDS-PAGE of Protein A-purified co-transfection product; chain A:chain B vectors 4:1.
Data set [20] has as its target T7, VhH-Fc fusion protein chain B with D356C + T366S + L368A + Y407V + F405K. The data set can be described thus: non-reducing SDS-PAGE densitometry of Protein A-purified co-transfection product; chain A:chain B vectors 1:4.
The target in data set [21] is T7, VhH-Fc fusion protein chain B with …. The data set can be described thus: non-reducing SDS-PAGE densitometry of Protein A-purified co-transfection product; chain A:chain B vectors 4:1.
In data set [22] the target is T8, VhH-Fc fusion protein chain B with T366S + L368A + Y407V + K409A + E357A. The data set can be described thus: non-reducing SDS-PAGE densitometry of Protein A-purified co-transfection product; chain A:chain B vectors 1:4.
In data set [23] the target is T8, VhH-Fc fusion protein chain B with …. In words: non-reducing SDS-PAGE densitometry of Protein A-purified co-transfection product; chain A:chain B vectors 4:1.

B1: ScFv-Fc fusion protein chain A with T366W + K409A + Y349D + S354D (protein)
chain: EVQLLESGGGVVQPGRSLRLSCIASGFTFSSYPMTWVRQAPGKGLEWVASISYDGSYKYKADSMKGRLTISRDNSKNTLYLEMNSLTAEDTAVYYCARTAFFNAYDFWGQGTLVTVSSASTKGPSVGGGGSGGGGSEIVMTQSPATLSVSPGERATLSCRASQSVRSNLAWYQQKPGQAPRLLIYAASTRATGIPARFSGSGSGTEFTLTISSLQSEDFAVYYCQQYNEWFRTSGQGTKVEIKRDKTHTCPPCPAPELLGGPSVFLFPPKPKDTLMISRTPEVTCVVVDVSHENPEVKFNWYVDGVEVHNAKTKPREEQYNSTYRVVSVLTVLHQDWLNGKEYKCKVSNKALPAPIEKTISKAKGQPREPQVDTLPPDRDELTKNQVSLWCLVKGFYPSDIAVEWESNGQPENNYKTTPPVLDSDGSFFLYSALTVDKSRWQQGNVFSCSVMHEALHNHYTQKSLSLSPGK
Regarding B1, the ScFv-Fc/VhH-Fc heterodimer (%) amounted to 64% in [1] and 61% in [2].

B2: ScFv-Fc fusion protein chain A with T366W + K409A (protein)
chain: B1 chain with D373Y, D378S
For the protein B2, the ScFv-Fc/VhH-Fc heterodimer (%) in [3] is 89%; in data set [4], 52%.

B3: ScFv-Fc fusion protein chain A with T366W + K409A + K392D (protein)
chain: B1 chain with D373Y, D378S, K416D
Consider B3, for which the ScFv-Fc/VhH-Fc heterodimer (%) came to 80% in data set [5], 73% in data set [6] and 61% in data set [7].

B4: ScFv-Fc fusion protein chain A with Y349C + T366W + F405K (protein)
chain: B1 chain with D373C, D378S, F429K, A433K
B4: the ScFv-Fc/Fc heterodimer (%) in data set [8] was 49%; in data set [9] it was 66%; in data set [10], 60% and 70%. The ScFv-Fc/VhH-Fc heterodimer (%) in [11] stood at 39%; in [12] it was 55%.

B5: ScFv-Fc fusion protein chain A with T366W + F405K + D399S (protein)
chain: B1 chain with D373Y, D378S, D423S, F429K, A433K
For B5, the ScFv-Fc/VhH-Fc heterodimer (%) in data set [13] amounted to 69%; in [14], 66%.

B6: ScFv-Fc fusion protein chain A with T366W + F405K (protein)
chain: B1 chain with D373Y, D378S, F429K, A433K
On to B6, for which the ScFv-Fc/VhH-Fc heterodimer (%) in [15] was found to be 93%; in [16], 77%.

B7: ScFv-Fc fusion protein chain A with Y349C + T366W + K409A + L368E (protein)
chain: B1 chain with D373C, D378S, L392E
Turning to B7, the ScFv-Fc/Fc heterodimer (%) in data set [17] stood at 30%.

B8: ScFv-Fc fusion protein chain A with Y349C + T366W (protein)
chain: B1 chain with D373C, D378S, A433K
Take B8: the ScFv-Fc/Fc heterodimer (%) is 44% in data set [8] and 42% in data set [9].

B9: ScFv-Fc fusion protein chain A with Y349C + T366W + K409A (protein)
chain: B1 chain with D373C, D378S
On to B9, for which the ScFv-Fc/Fc heterodimer (%) was determined as 66% in data set [18] and 53% in data set [19]. In addition, the ScFv-Fc/VhH-Fc heterodimer (%) in data set [20] worked out at 47%; in [21] it was 54%.

B10: ScFv-Fc fusion protein chain A with T366W + F405K + Y349D + S354D (protein)
chain: B1 chain with F429K, A433K
On to B10, for which the ScFv-Fc/VhH-Fc heterodimer (%) in data set [22] was determined as 86%; in [23], 61%.

B11: ScFv-Fc fusion protein chain A with T366W + K409A + Y349D (protein)
chain: B1 chain with D378S
For B11, the ScFv-Fc/VhH-Fc heterodimer (%) in data set [1] is 60%; in [2], 49%.
